Data from patent US20170160291.

B1: recombinant protease C1R (protein)
chain: SIPIPQKLFGEVTSPLFPKPYPNNFETTTVITVPTGYRVKLVFQQFDLEPSEGCFYDYVKISADKKSLGRFCGQLGSPLGNPPGKKEFMSQGNKMLLTFHTDFSNEENGTIMFYKGFLAYYQAVDLDECASRSKSGEEDPQPQCQHLCHNYVGGYFCSCRPGYELQEDTHSCQAECSSELYTEASGYISSLEYPRSYPPDLRCNYSIRVERGLTLHLKFLEPFDIDDHQQVHCPYDQLQIYANGKNIGEFCGKQRPPDLDTSSNAVDLLFFTDESGDSRGWKLRYTTEIIKCPQPKTLDEFTIIQNLQPQYQFRDYFIATCKQGYQLIEGNQVLHSFTAVCQDDGTWHRAMPRCKIKDCGQPRNLPNGDFRYTTTMGVNTYKARIQYYCHEPYYKMQTRAGSRESEQGVYTCTAQGIWKNEQKGEKIPRCLPVCGKPVNPVEQRQRIIGGQKAKMGNFPWQVFTNIHGRGGGALLGDRWILTAAHTLYPKEHEAQSNASLDVFLGHTNVEELMKLGNHPIRRVSVHPDYRQDESYNFEGDIALLELENSVTLGPNLLPICLPDNDTFYDLGLMGYVSGFGVMEEKIAHDLRFVRLPVANPQACENWLRGKNRMDVFSQNMFCAGHPSLKQDACQGDSGGVFAVRDPNTDRWVATGIVSWGIGCSRGYGFYTKVLNYVDWIKKEMEEED
B2: recombinant protease MASP1 (protein)
chain: HTVELNNMFGQIQSPGYPDSYPSDSEVTWNITVPDGFRIKLYFMHFNLESSYLCEYDYVKVETEDQVLATFCGRETTDTEQTPGQEVVLSPGSFMSITFRSDFSNEERFTGFDAHYMAVDVDECKEREDEELSCDHYCHNYIGGYYCSCRFGYILHTDNRTCRVECSDNLFTQRTGVITSPDFPNPYPKSSECLYTIELEEGFMVNLQFEDIFDIEDHPEVPCPYDYIKIKVGPKVLGPFCGEKAPEPISTQSHSVLILFHSDNSGENRGWRLSYRAAGNECPELQPPVHGKIEPSQAKYFFKDQVLVSCDTGYKVLKDNVEMDTFQIECLKDGTWSNKIPTCKIVDCRAPGELEHGLITFSTRNNLTTYKSEIKYSCQEPYYKMLNNNTGIYTCSAQGVWMNKVLGRSLPTCLPVCGLPKFSRKLMARIFNGRPAQKGTTPWIAMLSHLNGQPFCGGSLLGSSWIVTAAHCLHQSLDPEDPTLRDSDLLSPSDFKIILGKHWRLRSDENEQHLGVKHTTLHPQYDPNTFENDVALVELLESPVLNAFVMPICLPEGPQQEGAMVIVSGWGKQFLQRFPETLMEIEIPIVDHSTCQKAYAPLKKKVTRDMICAGEKEGGKDACAGDSGGPMVTLNRERGQWYLVGTVSWGDDCGKKDRYGVYSYIHHNKDWIQRVTGVRN
B3: recombinant protease MASP3 (protein)
chain: HTVELNNMFGQIQSPGYPDSYPSDSEVTWNITVPDGFRIKLYFMHFNLESSYLCEYDYVKVETEDQVLATFCGRETTDTEQTPGQEVVLSPGSFMSITFRSDFSNEERFTGFDAHYMAVDVDECKEREDEELSCDHYCHNYIGGYYCSCRFGYILHTDNRTCRVECSDNLFTQRTGVITSPDFPNPYPKSSECLYTIELEEGFMVNLQFEDIFDIEDHPEVPCPYDYIKIKVGPKVLGPFCGEKAPEPISTQSHSVLILFHSDNSGENRGWRLSYRAAGNECPELQPPVHGKIEPSQAKYFFKDQVLVSCDTGYKVLKDNVEMDTFQIECLKDGTWSNKIPTCKIVDCRAPGELEHGLITFSTRNNLTTYKSEIKYSCQEPYYKMLNNNTGIYTCSAQGVWMNKVLGRSLPTCLPECGQPSRSLPSLVKRIIGGRNAEPGLFPWQALIVVEDTSRVPNDKWFGSGALLSASWILTAAHVLRSQRRDTTVIPVSKEHVTVYLGLHDVRDKSGAVNSSAARVVLHPDFNIQNYNHDIALVQLQEPVPLGPHVMPVCLPRLEPEGPAPHMLGLVAGWGISNPNVTVDEIISSGTRTLSDVLQYVKLPVVPHAECKTSYESRSGNYSVTENMFCAGYYEGGKDTCLGDSGGAFVIFDDLSQRWVVQGLVSWGGPEECGSKQVYGVYTKVSNYVDWVWEQMGLPQSVVEPQVER
B4: recombinant protease C1S (protein)
chain: EPTMYGEILSPNYPQAYPSEVEKSWDIEVPEGYGIHLYFTHLDIELSENCAYDSVQIISGDTEEGRLCGQRSSNNPHSPIVEEFQVPYNKLQVIFKSDFSNEERFTGFAAYYVATDINECTDFVDVPCSHFCNNFIGGYFCSCPPEYFLHDDMKNCGVNCSGDVFTALIGEIASPNYPKPYPENSRCEYQIRLEKGFQVVVTLRREDFDVEAADSAGNCLDSLVFVAGDRQFGPYCGHGFPGPLNIETKSNALDIIFQTDLTGQKKGWKLRYHGDPMPCPKEDTPNSVWEPAKAKYVFRDVVQITCLDGFEVVEGRVGATSFYSTCQSNGKWSNSKLKCQPVDCGIPESIENGKVEDPESTLFGSVIRYTCEEPYYYMENGGGGEYHCAGNGSWVNEVLGPELPKCVPVCGVPREPFEEKQRIIGGSDADIKNFPWQVFFDNPWAGGALINEYWVLTAAHVVEGNREPTMYVGSTSVQTSRLAKSKMLTPEHVFIHPGWKLLEVPEGRTNFDNDIALVRLKDPVKMGPTVSPICLPGTSSDYNLMDGDLGLISGWGRTEKRDRAVRLKAARLPVAPLRKCKEVKVEKPTADAEAYVFTPNMICAGGEKGMDSCKGDSGGAFAVQDPNDKTKFYAAGLVSWGPQCGTYGLYTRVKNYVDWIMKTMQENSTPRED

Biological target: immature human CFD (proCFD)

Protein | processing of proCFD (IEF immunoblot after overnight incubation at 37 C) | degree of processing of the proCFD N terminus (targeted mass spectrometry, convertase activity test)
B1 | The treatment with C1R resulted in a partial processing/activation (lane 3) | 
B2 | ProCFD treated with MASP1 was not strongly processed (lane 1) | 
B3 | proCFD treated with MASP3 was almost completely converted into active CFD and even shows further processed forms (lane 2) | Only the proteases from the MASP family, i.e. L. MASP3 show a successful activation of proCFD
B4 | the convertase C1S hardly shows effects (lane 4, like MASP1) | 
